Laboratory results from patent US20060172940.

Molecular target: T1, synthetic full length mucocidin peptide (46-mer)
T1 chain: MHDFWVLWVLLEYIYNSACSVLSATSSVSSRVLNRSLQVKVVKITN

B1: guinea pig liver transglutaminase (protein)
chain: AEDLILERCDLQLEVNGRDHRTADLCRERLVLRRGQPFWLTLHFEGRGYEAGVDTLTFNAVTGPDPSEEAGTMARFSLSSAVEGGTWSASAVDQQDSTVSLLLSTPADAPIGLYRLSLEASTGYQGSSFVLGHFILLYNPRCPADAVYMDSDQERQEYVLTQQGFIYQGSAKFINGIPWNFGQFEDGILDICLMLLDTNPKFLKNAGQDCSRRSRPVYVGRVVSAMVNCNDDQGVLQGRWDNNYSDGVSPMSWIGSVDILRRWKDYGCQRVKYGQCWVFAAVACTVLRCLGIPTRVVTNFNSAHDQNSNLLIEYFRNESGEIEGNKSEMIWNFHCWVESWMTRPDLEPGYEGWQALDPTPQEKSEGTYCCGPVPVRAIKEGHLNVKYDAPFVFAEVNADVVNWIRQKDGSLRKSINHLVVGLKISTKSVGRDEREDITHTYKYPEGSEEEREAFVRANHLNKLATKEEAQEETGVAMRIRVGQNMTMGSDFDIFAYITNGTAESHECQLLLCARIVSYNGVLGPVCSTNDLLNLTLDPFSENSIPLHILYEKYGDYLTESNLIKVRGLLIEPAANSYVLAERDIYLENPEIKIRVLGEPKQNRKLIAEVSLKNPLPVPLLGCIFTVEGAGLTKDQKSVEVPDPVEAGEQAKVRVDLLPTEVGLHKLVVNFECDKLKAVKGYRNVIIGPA
With B1 the “Transglutaminase catalyzed monodansylcadaverine (MDC) incorporation into mucocidin” value was “The time-dependent uptake of MDC into mucocidin (FIG. 4C) was detected only in the presence of Ca^++ but not in its absence”.
